The experiment has as its target T1, human BCMA on CHO cells (human).
T1 chain: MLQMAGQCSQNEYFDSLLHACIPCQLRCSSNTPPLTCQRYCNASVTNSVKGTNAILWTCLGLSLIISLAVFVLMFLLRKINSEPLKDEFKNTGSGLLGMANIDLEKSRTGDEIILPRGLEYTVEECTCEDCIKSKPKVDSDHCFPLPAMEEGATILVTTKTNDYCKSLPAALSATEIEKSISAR
The experiment in a line: FACS. (In flow cytometry, cells or beads pass a laser one at a time.)

Numbering of substitutions follows the chain as printed.

The term EC50 denotes the midpoint of the concentration-response curve. Low values mean greater potency, high ones weaker potency.

B1: P1AG7207 BCMA arm (antibody, V domains shown)
VH: EVQLLESGGGLVQPGGSLRLSCAASGFTFSNAWMDWVRQAPGKGLEWVSQITAKSNNYATYYADSVKGRFTISRDNSKNTLYLQMNSLRAEDTAVYYCTDDGYHWGQGTLVTVSS
VL: DIQMTQSPSSLSASVGDRVTITCRASEDIRNGLAWYQQKPGKAPKLLIYNANSLHTGVPSRFSGSGSGTDFTLTISSLQPEDFATYYCEDTSKYPYTFGQGTKLEIK
For B1, the EC50 turned out to be 16.3 nM.

B2: P1AG7196 BCMA arm (antibody, V domains shown)
VH: B1 VH
VL: B1 VL
Consider B2, for which it took 18.1 nM to reach a half-maximal effect (EC50).

B3: BCMA (PR)-CD28v8 P1AF7062, BCMA arm (antibody, V domains shown)
VH: EVQLLESGGGLVQPGGSLRLSCAASGFTFSSYAMNWVRQAPGKGLEWVSAITASGGSTYYADSVKGRFTISRDNSKNTLYLQMNSLRAEDTAVYYCARYWPMSLWGQGTLVTVSS
VL: EIVLTQSPGTLSLSPGERATLSCRASQSVSAYYLAWYQQKPGQAPRLLMYDASIRATGIPDRFSGSGSGTDFTLTISRLEPEDFAVYYCQQYERWPLTFGQGTKVEIKR
Take B3: the concentration for a half-maximal effect (EC50) was determined as 5.55 nM.

B4: BCMA (PR)-CD28v15 P1AE9053, BCMA arm (antibody, V domains shown)
VH: B3 VH
VL: B3 VL
The molecule B4 gave a 50% effective concentration (EC50) of 7.63 nM.

B5: P1AG7285 BCMA arm (antibody, V domains shown)
VH: QVQLVQSGAEVKKPGASVKVSCKASGYTFTNYWMHWVRQAPGQGLEWMGIIHPNSGSTNYNEKFQGRVTMTRDTSTSTVYMELSSLRSEDTAVYYCARGIYDYPFAYWGQGTLVTVSS
VL: DIQMTQSPSSLSASVGDRVTITCRASESVSIHGTHLMHWYQQKPGKAPKLLIYAASSLQSGVPSRFSGSGSETDFTLTISSLQPEDFATYYCQQSIEDPYTFGGGTKVEIK
For B5, the response was half-maximal at 25.6 nM (EC50). Compared with the last molecule, the EC50 is about 3.4-fold higher.

B6: P1AG7200 BCMA arm (antibody, V domains shown)
VH: B5 VH
VL: B5 VL with S57N, Q59E, E72G
For B6, it took 13.8 nM to reach a half-maximal effect (EC50). This EC50 is about 1.9-fold lower than that of the molecule before.

B7: P1AG7215 BCMA arm (antibody, V domains shown)
VH: B5 VH
VL: B5 VL with S57N, Q59E, E72G
The molecule B7 registered an EC50 of 16.5 nM. This EC50 and that of the molecule before are within 1.5-fold of each other.

B8: P1AG7191 BCMA arm (antibody, V domains shown)
VH: B5 VH
VL: B5 VL
B8 yielded an EC50 of 19.8 nM.

These data come from patent US20260374889 (published 2026).
